B1: CD133 (prominin-1): N548Q (protein)
parent chain: MALVLGSLLLLGLCGNSFSGGQPSSTDAPKAWNYELPATNYETQDSHKAGPIGILFELVHIFLYVVQPRDFPEDTLRKFLQKAYESKIDYDKPETVILGLKIVYYEAGIILCCVLGLLFIILMPLVGYFFCMCRCCNKCGGEMHQRQKENGPFLRKCFAISLLVICIIISIGIFYGFVANHQVRTRIKRSRKLADSNFKDLRTLLNETPEQIKYILAQYNTTKDKAFTDLNSINSVLGGGILDRLRPNIIPVLDEIKSMATAIKETKEALENMNSTLKSLHQQSTQLSSSLTSVKTSLRSSLNDPLCLVHPSSETCNSIRLSLSQLNSNPELRQLPPVDAELDNVNNVLRTDLDGLVQQGYQSLNDIPDRVQRQTTTVVAGIKRVLNSIGSDIDNVTQRLPIQDILSAFSVYVNNTESYIHRNLPTLEEYDSYWWLGGLVICSLLTLIVIFYYLGLLCGVCGYDRHATPTTRGCVSNTGGVFLMVGVGLSFLFCWILMIIVVLTFVFGANVEKLICEPYTSKELFRVLDTPYLLNEDWEYYLSGKLFNKSKMKLTFEQVYSDCKKNRGTYGTLHLQNSFNISEHLNINEHTGSISSELESLKVNLNIFLLGAAGRKNLQDFAACGIDRMNYDSYLAQTGKSPAGVNLLSFAYDLEAKANSLPPGNLRNSLKRDAQTIKTIHQQRVLPIEQSLSTLYQSVKILQRTGNGLLERVTRILASLDFAQNFITNNTSSVIIEETKKYGRTIIGYFEHYLQWIEFSISEKVASCKPVATALDTAVDVFLCSYIIDPLNLFWFGIGKATVFLLPALIFAVKLAKYYRRMDSEDVYDDVETIPMKNMENGNNGYHKDHVYGIHNPVMTSPSQH
B2: CD133 (prominin-1): N206Q (protein)
parent chain: B1 parent chain
B3: CD133 (prominin-1): N274Q (protein)
parent chain: B1 parent chain
B4: CD133 (prominin-1): N730Q (protein)
parent chain: B1 parent chain
B5: CD133 (prominin-1): N580Q (protein)
parent chain: B1 parent chain
B6: CD133 (prominin-1): N414Q (protein)
parent chain: B1 parent chain
B7: CD133 (prominin-1): N220Q (protein)
parent chain: B1 parent chain
B8: CD133 (prominin-1): N729Q (protein)
parent chain: B1 parent chain
B9: CD133 (prominin-1): N395Q (protein)
parent chain: B1 parent chain

test: FLAG IP, PY828 blot, HEK293T with Src; conditions: glycan lost; control: wild-type CD133

other: Y828 phosphorylation, no change:
B1

test: immunofluorescence with ER dye, HEK293T; conditions: glycan lost; control: wild-type CD133

localisation_or_trafficking, no change:
B2, B3, B1, B4, B5, B6, B7, B8, B9

test: anti-CD133 western blot, HEK293T lysates; conditions: glycan lost; control: wild-type CD133

expression_or_secretion, no change:
B2, B3, B1, B4, B5, B6, B7, B8, B9

test: surface flow cytometry, HEK293T and HepG2; conditions: glycan lost; control: wild-type CD133

localisation_or_trafficking, no change:
B2, B3, B1, B4, B5, B6, B7, B8, B9

— article PMC4653032
